According to PMC5256923, “RNA and DNA Targeting by a Reconstituted Thermus thermophilus Type III-A CRISPR-Cas System” (PLoS ONE, 2017):
Where “and” joins values, the source holds several entries; their conditions need not be identical. Equal values may be shown once.

T1: T. thermophilus Csm5, His10 tag cleaved off with HRV 3C protease (T. thermophilus, UniProt Q53W18 1-397)
T1 construct: Csm5 of Thermus thermophilus (locus TTHB151), codon-optimized gene; Same construct as m1 after 3C cleavage; also called TTHB151; source: E. coli BL21(λDE3), co-expressed with the other Csm subunits, Cas6A and crRNA 4.5; co-purified in the TthCsm complex (Ni-NTA, 3C cleavage, Ni-NTA, Superose 6)
T1 sequence (looked up): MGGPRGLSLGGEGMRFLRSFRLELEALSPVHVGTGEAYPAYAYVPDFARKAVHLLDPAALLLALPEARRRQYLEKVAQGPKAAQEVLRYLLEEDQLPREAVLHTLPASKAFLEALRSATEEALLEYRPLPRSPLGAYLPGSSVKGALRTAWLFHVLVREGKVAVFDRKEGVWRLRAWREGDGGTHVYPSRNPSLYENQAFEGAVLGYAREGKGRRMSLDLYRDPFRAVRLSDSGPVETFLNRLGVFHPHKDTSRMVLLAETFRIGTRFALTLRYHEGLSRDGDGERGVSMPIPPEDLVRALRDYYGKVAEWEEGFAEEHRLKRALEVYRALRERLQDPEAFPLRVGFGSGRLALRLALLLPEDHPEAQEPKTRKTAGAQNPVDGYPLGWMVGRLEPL


Tests used:
[1] = target: T. thermophilus Csm5, His10 tag cleaved off with HRV 3C protease (T. thermophilus) (UniProt Q53W18); test: native MS; native nanoESI-MS, positive ion mode, about 5 uM of the co-expressed and co-purified TthCsm complex (with crRNA) exchanged into 1 M ammonium acetate, 5% glycerol
[2] = target: T1, T. thermophilus Csm5, His10 tag cleaved …; test: as above; conditions: both partners purified

| stoichiometry N [1] | stoichiometry N [2] | Molecule |
| --- | --- | --- |
| 3 and 4 | – | T. thermophilus Csm2 (natural protein) |
| 6 and 4 | – | T. thermophilus Csm3 (natural protein) |
| 1 | – | T. thermophilus Csm4 (from UniProt Q53W19 1-805) (natural protein) |
| – | 1 | T. thermophilus Cas10/Csm1 (natural protein, UniProt Q53W19 1-805, looked up, Cas10/Csm1 of Thermus thermophilus (locus TTHB147), codon-optimized gene; also called TTHB147; source: E. coli BL21(λDE3), co-expressed with the other Csm subunits, Cas6A and crRNA 4.5; in lysate, and co-purified in the TthCsm complex (Ni-NTA, Superose 6)) MLGDGLSVALAGLLHDVGKLYSRARWGERDDQVPDRTHTAYTAHFVREHAGLFRGAGLDPDWLARTASRHHEGWRDRPQYRPETPEEWCVALADTYASKEREEGEGGGSPPEVPLSPPFRRLLLGGEEGREGGYSPVGAGGRVGLEAGGLYPEERPNVSKDVYKRLLERLEGRLEEMARFSLGKEALVLNLALALQETLSLVPSDTQSEPDVSLYDHLRLTAAIAHALWLFHGGSPSAQNLRQDGEKFLLVVGDMGGIQGHIYRIAGAEAGVGGIAKRLRARSLEVSLAAEAMALGLLWRLGLTSLNRILGAGGKFYLLLPNTEEARAALEGTREAWGRWALKRGGSLVPHLAWVAFRGQDFRDFAALLKRLHEALAREKLRPFAFLASTGGVLGAPLRPCAACGLEPARRDEPGSLCPDCEREAALGARLPRSDRVGFFLEEAPRPYLDFPGLKVGLGGPLEGAFHLFRARLDFAPWPDPSEAKPLLGHLPRVEHALKAKGWSLEAYRAWAEEEGLLEDEEPHPEKVLTFAELAALSEGAPYLGALMLDADRMGEAFATGFRREGRDLATPSRLAALSRTLEVFFTTEVLTLLEEPRRYRERLGWDDLEAQRKEARYPLLYSVYSGGDDLFLLGPWDALLDFALDLERLYRLFTRHPRLTLSGGFLLVPPSLPVPELARLLGEAEKRAKAEGRERLFLFGQAVPWETLRGLRAWAEGLRQDLRAERVSRAQVYRWLLLWRRFSPLEDPGERMRYKPLLAYALRRVRERDEEAWKRYLKLLDHQDPAWAYLPVWVQWALYRERRV |
